Test results published in patent US20200155648A1 (CHILDREN S MEDICAL CENTER, published 2020).

Molecular target: T1, rhVEGFR1-Fc (R&D Systems, Minneapolis, Minn.) (human, UniProt P17948-2 27-687, limits assumed)
T1 construct: It was captured on plates by an anti-Fc antibody; also called Flt-1; not shown: Fc part of the bought fusion
Assay: cell-free plate assay: rhVEGFR1-Fc captured by anti-Fc, VEGF165 titrated, Kd from the double reciprocal plot; heparin level not given
Experimental: Plates were washed five times with wash buffer (0.05% Tween-20 in PBS, pH 7.2-7.4) the next morning and blocked with blocking buffer (2% bovine serum albumin and 0.05% Tween-20 in PBS) for 1 hour at 37° C. […] Substrate reaction was stopped with 2N sulfuric acid and the signal was visualized with a FLUOstar Omega microplate reader (BMG Labtech, Cary, N.C.) at 450 nm.
All other outcomes were analyzed with analysis of variance.

T1 sequence (P17948 other isoform, or with tags, fused parts or gaps limits assumed): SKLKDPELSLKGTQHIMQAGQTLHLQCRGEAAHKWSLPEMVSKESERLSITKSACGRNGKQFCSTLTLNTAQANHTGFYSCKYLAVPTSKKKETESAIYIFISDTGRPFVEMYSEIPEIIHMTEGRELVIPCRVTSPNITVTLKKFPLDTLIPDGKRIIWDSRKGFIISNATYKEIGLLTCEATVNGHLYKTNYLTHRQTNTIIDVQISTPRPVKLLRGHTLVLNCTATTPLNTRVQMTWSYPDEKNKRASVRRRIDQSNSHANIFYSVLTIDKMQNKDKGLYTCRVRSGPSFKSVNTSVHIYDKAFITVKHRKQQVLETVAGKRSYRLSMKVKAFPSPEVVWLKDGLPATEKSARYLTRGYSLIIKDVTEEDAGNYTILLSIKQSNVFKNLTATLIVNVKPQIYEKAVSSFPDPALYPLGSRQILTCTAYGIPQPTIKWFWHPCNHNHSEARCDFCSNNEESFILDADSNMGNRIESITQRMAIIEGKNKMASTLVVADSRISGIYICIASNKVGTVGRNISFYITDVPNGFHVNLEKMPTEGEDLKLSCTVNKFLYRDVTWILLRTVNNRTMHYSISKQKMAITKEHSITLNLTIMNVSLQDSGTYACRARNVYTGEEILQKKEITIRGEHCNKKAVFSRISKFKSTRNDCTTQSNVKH

B1: rhVEGF-165 (Shire, Lexington, Mass.) (ligand)
chain: APMAEGGGQNHHEVVKFMDVYQRSYCHPIETLVDIFQEYPDEIEYIFKPSCVPLMRCGGCCNDEGLECVPTEESNITMQIMRIKPHQGQHIGEMSFLQHNKCECRPKKDRARQENPCGPCSERRKHLFVQDPQTCKCSCKNTDSRCKARQLELNERTCRCDKPRR
  Kd: 8.14 ng/mL
